The chains are these.
B1: 767 (protein)
chain: MALPVTALLLPLALLLHAARPRSSLALSLTADQMVSALLDAEPPILYSEYDPTRPFSEASMMGLLTNLADRELVHMINWAKRVPGFVDLALHDQVHLLECAWMEILMIGLVWRSMEHPGKLLFAPNLLLDRNQGKCVEGGVEIFDMLLATSSRFRMMNLQGEEFVCLKSIILLNSGVYTFLSSTLKSLEEKDHIHRVLDKITDTLIHLMAKAGLTLQQQHQRLAQLLLILSHIRHMSSKRMEHLYSMKCKNVVPLSDLLLEMLDAHRLGTGAEDPRPSRKRRSLGDVGEIVMTQSPATLSLSPGERATLSCRASQDISKYLNWYQQKPGQAPRLLIYHTSRLHSGIPARFSGSGSGTDYTLTISSLQPEDFAVYFCQQGNTLPYTFGQGTKLEIKGGGGSGGGGSGGGGSQVQLQESGPGLVKPSETLSLTCTVSGVSLPDYGVSWIRQPPGKGLEWIGVIWGSETTYYQSSLKSRVTISKDNSKNQVSLKLSSVTAADTAVYYCAKHYYYGGSYAMDYWGQGTLVTVSSTTTPAPRPPTPAPTIASQPLSLRPEACRPAAGGAVHTRGLDFACDIYIWAPLAGTCGVLLLSLVITLYCKRGRKKLLYIFKQPFMRPVQTTQEEDGCSCRFPEEEEGGCELRVKFSRSADAPAYQQGQNQLYNELNLGRREEYDVLDKRRGRDPEMGGKPRRKNPQEGLYNELQKDKMAEAYSEIGMKGERRRGKGHDGLYQGLSTATKDTYDALHMQALPPRGGGGSGGGGTGGGGSGMHKRSHTGERPFQCNQCGASFTQKGNLLRHIKLHTGEKPFKCHLCNTASAEARHIKAEMG
B2: 6761 (protein)
chain: MALPVTALLLPLALLLHAARPEIVMTQSPATLSLSPGERATLSCRASQDISKYLNWYQQKPGQAPRLLIYHTSRLHSGIPARFSGSGSGTDYTLTISSLQPEDFAVYFCQQGNTLPYTFGQGTKLEIKGGGGSGGGGSGGGGSQVQLQESGPGLVKPSETLSLTCTVSGVSLPDYGVSWIRQPPGKGLEWIGVIWGSETTYYQSSLKSRVTISKDNSKNQVSLKLSSVTAADTAVYYCAKHYYYGGSYAMDYWGQGTLVTVSSTTTPAPRPPTPAPTIASQPLSLRPEACRPAAGGAVHTRGLDFACDIYIWAPLAGTCGVLLLSLVITLYCKRGRKKLLYIFKQPFMRPVQTTQEEDGCSCRFPEEEEGGCELRVKFSRSADAPAYQQGQNQLYNELNLGRREEYDVLDKRRGRDPEMGGKPRRKNPQEGLYNELQKDKMAEAYSEIGMKGERRRGKGHDGLYQGLSTATKDTYDALHMQALPPRKGGGSKGGGTKGGGSKMHKRSHTGERPFQCNQCGASFTQKGNLLRHIKLHTGEKPFKCHLCNTASAEARHIKAEMGGKPIPNPLLGLDST
B3: 768 (protein)
chain: B2 chain with K487G, K492G, K497G, K502G
B4: 765 (protein)
chain: MALPVTALLLPLALLLHAARPRSSLALSLTADQMVSALLDAEPPILYSEYDPTRPFSEASMMGLLTNLADRELVHMINWAKRVPGFVDLALHDQVHLLECAWMEILMIGLVWRSMEHPGKLLFAPNLLLDRNQGKCVEGGVEIFDMLLATSSRFRMMNLQGEEFVCLKSIILLNSGVYTFLSSTLKSLEEKDHIHRVLDKITDTLIHLMAKAGLTLQQQHQRLAQLLLILSHIRHMSSKRMEHLYSMKCKNVVPLSDLLLEMLDAHRLGTGAEDPRPSRKRRSLGDVGEIVMTQSPATLSLSPGERATLSCRASQDISKYLNWYQQKPGQAPRLLIYHTSRLHSGIPARFSGSGSGTDYTLTISSLQPEDFAVYFCQQGNTLPYTFGQGTKLEIKGGGGSGGGGSGGGGSQVQLQESGPGLVKPSETLSLTCTVSGVSLPDYGVSWIRQPPGKGLEWIGVIWGSETTYYQSSLKSRVTISKDNSKNQVSLKLSSVTAADTAVYYCAKHYYYGGSYAMDYWGQGTLVTVSSTTTPAPRPPTPAPTIASQPLSLRPEACRPAAGGAVHTRGLDFACDIYIWAPLAGTCGVLLLSLVITLYCKRGRKKLLYIFKQPFMRPVQTTQEEDGCSCRFPEEEEGGCELRVKFSRSADAPAYQQGQNQLYNELNLGRREEYDVLDKRRGRDPEMGGKPRRKNPQEGLYNELQKDKMAEAYSEIGMKGERRRGKGHDGLYQGLSTATKDTYDALHMQALPPR
B5: 766 (protein)
chain: MALPVTALLLPLALLLHAARPRSSLALSLTADQMVSALLDAEPPILYSEYDPTRPFSEASMMGLLTNLADRELVHMINWAKRVPGFVDLALHDQVHLLECAWMEILMIGLVWRSMEHPGKLLFAPNLLLDRNQGKCVEGGVEIFDMLLATSSRFRMMNLQGEEFVCLKSIILLNSGVYTFLSSTLKSLEEKDHIHRVLDKITDTLIHLMAKAGLTLQQQHQRLAQLLLILSHIRHMSSKRMEHLYSMKCKNVVPLSDLLLEMLDAHRLGTGAEDPRPSRKRRSLGDVGEIVMTQSPATLSLSPGERATLSCRASQDISKYLNWYQQKPGQAPRLLIYHTSRLHSGIPARFSGSGSGTDYTLTISSLQPEDFAVYFCQQGNTLPYTFGQGTKLEIKGGGGSGGGGSGGGGSQVQLQESGPGLVKPSETLSLTCTVSGVSLPDYGVSWIRQPPGKGLEWIGVIWGSETTYYQSSLKSRVTISKDNSKNQVSLKLSSVTAADTAVYYCAKHYYYGGSYAMDYWGQGTLVTVSSTTTPAPRPPTPAPTIASQPLSLRPEACRPAAGGAVHTRGLDFACDIYIWAPLAGTCGVLLLSLVITLYCKRGRKKLLYIFKQPFMRPVQTTQEEDGCSCRFPEEEEGGCELRVKFSRSADAPAYQQGQNQLYNELNLGRREEYDVLDKRRGRDPEMGGKPRRKNPQEGLYNELQKDKMAEAYSEIGMKGERRRGKGHDGLYQGLSTATKDTYDALHMQALPPRGGGGSGGGGTGGGGSGMHKRSHTGERPFQCNQCGASFTQKGNLLRHIKLHTGEKPFKCHLCNTASAEARHIKAEMGGKPIPNPLLGLDST

Where a chain is given by its changes, count along the chain named.

One experiment has as its system CAR19 fused to HilD tag and/or FurON. Nature of the experiment: Flow cytometry of surface CAR expression on JNL cells, 10 μM lenalidomide and/or bazedoxifene 24 hours. The experiment is classed as cell-based, human. The following applies: surface CAR on transduced JNL cells, 10 μM lenalidomide, 24 hours. Background: Flow cytometry measures light scatter and fluorescence of single cells or particles in a stream.
Source text: Next, the surface expression of CAR19 on stably transduced JNL cells was examined by flow cytometry. […] On Day 2, cells were harvested, stained using biotinylated-protein L (Genscript, M00097) followed by PE conjugated streptavidin (Jackson Lab, 016-110-084), and subjected to flow cytometry analysis using Fortessa instrument.
With B1, the “% reduction in CAR expression” value came to 95% and the Effect of lenalidomide result is on record as “Yes”.

Turning to B2, the “% reduction in CAR expression” value is given as 77% and the Effect of lenalidomide result is “Yes”.

B3: the “% reduction in CAR expression” value was found to be 88% and the Effect of lenalidomide entry is given as “Yes”.

As to B4, the Effect of lenalidomide entry is “No”.

Take B5: the “% reduction in CAR expression” value was 92% and the Effect of lenalidomide entry is given as “Yes”.

Staying with this experiment, now noted: surface CAR on transduced JNL cells, flow cytometry; FurON constructs only in presence of bazedoxifene.
As to B1, the “CAR Expression” value is “Yes”.

With B2, the “CAR Expression” value was “Yes”.

Consider B3, for which the “CAR Expression” value was “Yes”.

Take B4: the “CAR Expression” value was “Yes”.

As to B5, the “CAR Expression” value is on record as “Yes”.

The same experiment, now with this note: surface CAR on transduced JNL cells, with/without bazedoxifene.
As to B1, the Effect of bazedoxifene result is given as “Yes”.

Regarding B4, the Effect of bazedoxifene result is “Yes”.

In the case of B5, the Effect of bazedoxifene entry is on record as “Yes”.

For the origin of these results see US20220251152A1, “COMPOSITIONS AND METHODS FOR SELECTIVE PROTEIN DEGRADATION” (Novartis AG, priority 2019, published 2022).
